According to IntAct's records for PubMed 7538908:

B1: Tumor necrosis factor receptor superfamily member 6 (Homo sapiens), P25445 (parent)
chain: MLGIWTLLPLVLTSVARLSSKSVNAQVTDINSKGLELRKTVTTVETQNLEGLHHDGQFCHKPCPPGERKARDCTVNGDEPDCVPCQEGKEYTDKAHFSSKCRRCRLCDEGHGLEVEINCTRTQNTKCRCKPNFFCNSTVCEHCDPCTKCEHGIIKECTLTSNTKCKEEGSRSNLGWLCLLLLPIPLIVWVKRKEVQKTCRKHRKENQGSHESPTLNPETVAINLSDVDLSKYITTIAGVMTLSQVKGFVRKNGVNEAKIDEIKNDNVQDTAEQKVQLLRNWHQLHGKKEAYDTLIKDLKKANLCTLAEKIQTIILKDITSDSENSNFRNEIQSLV

Variants of: B1
Details: with ripk1_human RIPK1, Q13546
Sequence of ripk1_human RIPK1, Q13546 (Q13546 whole entry): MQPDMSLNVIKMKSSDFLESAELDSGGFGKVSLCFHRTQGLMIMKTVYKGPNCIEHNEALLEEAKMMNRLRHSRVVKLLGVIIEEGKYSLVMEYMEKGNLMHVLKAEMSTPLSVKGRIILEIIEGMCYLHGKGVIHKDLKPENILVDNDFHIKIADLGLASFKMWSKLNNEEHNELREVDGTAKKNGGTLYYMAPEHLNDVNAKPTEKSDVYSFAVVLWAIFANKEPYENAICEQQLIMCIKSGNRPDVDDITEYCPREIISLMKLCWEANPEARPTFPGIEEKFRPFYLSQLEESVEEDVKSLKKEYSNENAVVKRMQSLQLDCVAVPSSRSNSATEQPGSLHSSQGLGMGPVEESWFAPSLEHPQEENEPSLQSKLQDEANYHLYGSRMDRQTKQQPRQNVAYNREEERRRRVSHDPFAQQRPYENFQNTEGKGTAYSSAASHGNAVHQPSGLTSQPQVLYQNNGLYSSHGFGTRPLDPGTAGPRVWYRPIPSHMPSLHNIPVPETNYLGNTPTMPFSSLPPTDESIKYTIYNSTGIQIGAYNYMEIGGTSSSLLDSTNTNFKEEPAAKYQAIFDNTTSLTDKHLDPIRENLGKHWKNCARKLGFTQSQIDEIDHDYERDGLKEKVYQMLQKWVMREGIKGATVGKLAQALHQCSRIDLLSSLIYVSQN

Row | Variant | effect of a mutation on the interaction
1 | V254N | decreasing interaction
